± gives the standard deviation of the averaged measurements.

To fix the notation:
B1: library; numbered along this chain (parent)
chain: MNIQIGELAKRTACPVVTIRFYEQEGLLPPPGRSRGNFRLYGEEHVERLQFIRHCRSLDMPLSDVRTLLSYRKRPDQDCGEVNMLLDEHIRQVESRIGALLELKHHLVELREACSGARPAQSCGILQGLSDCVCDTRGTTAHPSD

In data set [1] the parent is B1. Description: sfGFP reporter fluorescence (15 h) (µM FITC); higher = higher leak. To be noted: library round: Round 0; ligand: none. In a few lines: (§1)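 PCR-made linear PbrR templates (Echo-normalized to 5 nM) were expressed in BL21 Star (DE3) extract (PANOx-SP) with pPbrR-sfGFP reporter plasmid and 30 μg/mL GamS. Reactions were 1 μL, Echo-assembled, with 1 µM lead chloride, 30 µM zinc acetate or no metal, incubated 15 hr at 30 °C. Endpoint sfGFP fluorescence (485/528 nm, Synergy Neo2) was converted to µM FITC via standard curves in 50 mM sodium borate pH 8.5. Up to three biological replicates.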

In data set [2] the parent is B1. Description: sfGFP reporter fluorescence (15 h) (µM FITC); higher = stronger transcriptional activation. To be noted: library round: Round 0. In a few lines: as §1

As for MNIQIGELAKRTACVVVTIRFYEQEGLLPPPGRSRGNFRLYGEEHVERLQFIRHCRSLDMPLSDVRTLLSYRKRPDQDCGEVNMLLDEHIRQVESRIGALLELKHHLVELREACSGARPAQSCGILQGLSDCVCDTRGTTAHPSD, the figures for the sfGFP reporter fluorescence in data set [1], in data set [2] (ligand: 1 µM Pb) and in data set [2] (ligand: 30 µM Zn) were 0.0757 ± 0.00078, 0.07385 ± 0.00026 and 0.212 ± 0.018, respectively.
On the same counts, the results for MNIQIGELAKRTACPVVTIRFYEQEGLLPPPGRSRGNFRLYGEEHVERLQFIRHCRSKDMPLSDVRTLLSYRKRPDQDCGEVNMLLDEHIRQVESRIGALLELKHHLVELREACSGARPAQSCGILQGLSDCVCDTRGTTAHPSD are 0.0629 ± 0.0013, 0.06908 ± 0.00026 and 0.0735 ± 0.0034.
In the same order, the values of MNIQIGELAKRTACPVVTIRFYEQEGLLPPPGRSRGNFRLYGEEHVERLQFIRHCRSLDMPLSDVRTLLSYRKRPDQDCGEVNMLLDEHIRQVESRIGALLELKHHLVELREADSGARPAQSCGILQGLSDCVCDTRGTTAHPSD are 0.0585 ± 0.00078, 0.0588 ± 0.0018 and 0.0564 ± 0.0036.
Take MNIQIGELAKRTACPVVTIRFYEQEGLLPPPGRSRGNFRLYGEEHVERLQFIRHCRSLDMPLSDVRTLLSYRKRPDQDEGEVNMLLDEHIRQVESRIGALLELKHHLVELREACSGARPAQSCGILQGLSDCVCDTRGTTAHPSD: the sfGFP reporter fluorescence came to 0.0588 ± 0.00078 in data set [1], 0.0596 ± 0.00078 in data set [2] (ligand: 1 µM Pb) and 0.0548 ± 0.00078 in data set [2] (ligand: 30 µM Zn).
In the same order, the values of MNIQIGELAKRTACPVVTIRFYEQEGLLPPPGRSRGNFRLYGEEHVERLQFIRHCRSLDLNLSKVRTLLSYRKRPDQDCGEVNMLLDEHIRQVESRIGALLELKHHCVELREACSGARPAQSCGILQGLSDCVCDTRGTTAHPSD are 3.0399 ± 0.0023, 4.3 ± 0.33 and 4.24 ± 0.28.
On the same counts, the results for MNIQIGELAKRTACPVVTIRFYEQEGLLPPPGRSRGNFRLYGEEHVERLQFIRHCRSLDMPLSKVRTLLSYRKRPDQDCGEVNMLLDEHIRQVESRIGALLELKHHCVELREACSGARPAQSCGILQMLSDCVCDTRGTTAHPSD are 6.27 ± 0.28, 5.91 ± 0.52 and 4.866 ± 0.045.
Turning to MNIQIGELAKRTACPVVTIRFYEQEGPLPPPGRSRGNFRLYGEEHVERLQFIRHCRSLDMPLSDVRTLLSYRKRPDQDCGEVNMLLDEHIRQVESRIGALLELKHHLVELREACSGARPAQSCGILQGLSDCVCDTRGTTAHPSD, the results for the sfGFP reporter fluorescence in data set [1], in data set [2] (ligand: 1 µM Pb) and in data set [2] (ligand: 30 µM Zn) were 0.0607 ± 0.0034, 0.0612 ± 0.001 and 0.0656 ± 0.0026, respectively.
On the same counts, the results for MNIQIGELAKRTACPVVTIRFYEQEGLLPPPGRSRGNFRLYGEEHVERLQFIRHCRSLDMPLSDVRTLLSYRKRPDQDCGEVNMLLDEHIRQVESRIGALLELKHHLVELCEACSGARPAQSCGILQGLSDCVCDTRGTTAHPSD are 0.0572 ± 0.0021, 0.077 ± 0.0042 and 0.157 ± 0.0054.
In the same order, the values of MNIQIGELAKRTACPFVTIRFYEQEGLLPPPGRSRGNFRLYGEEHVERLQFIRHCRSLDMPLSDVRTLLSYRKRPDQDCGEVNMLLDEHIRQVESRIGALLELKHHLVELREACSGARPAQSCGILQGLSDCVCDTRGTTAHPSD are 0.0623 ± 0.0015, 0.0641 and 0.107 ± 0.0029.
On the same counts, the results for MNIQIGELAKRTACPVVTIRFYEQEGLLPPPGRSRGNFRLYGEEHVERLQFIRHCRSLDNPLSDVRTLLSYRKRPDQDCGEVNMLLDEHIRQVESRIGALLELKHHLVELREACSGARPAQSCGILQGLSDCVCDTRGTTAHPSD are 0.0616 ± 0.001, 0.0607 ± 0.0018 and 0.061 ± 0.0013.
Take MNIQIGELAKRTACPVVTIRFYEQEGLLPPPGRSRGNFRLYGEEHVERLQFIRHCRSLDDPLSDVRTLLSYRKRPDQDCGEVNMLLDEHIRQVESRIGALLELKHHLVELREACSGARPAQSCGILQGLSDCVCDTRGTTAHPSD: the sfGFP reporter fluorescence was 0.0616 ± 0.001 in data set [1], 0.0619 ± 0.0015 in data set [2] (ligand: 1 µM Pb) and 0.063 ± 0.0015 in data set [2] (ligand: 30 µM Zn).
In the same order, the values of MNIQIGELAKRTACPVVTIRFYEQEGLLPPPGRSRGNFRLYGEEHVERLQFIRHCRSLDMYLSDVRTLLSYRKRPDQDCGEVNMLLDEHIRQVESRIGALLELKHHLVELREACSGARPAQSCGILQGLSDCVCDTRGTTAHPSD are 0.0638 ± 0.0015, 0.0757 ± 0.0018 and 0.148 ± 0.0023.
On the same counts, the results for MNIQIGELAKRTACPVVTIRFYEQEGLLPPPGRSRGNFRLYGEEHVERLQFIRHCRSLDMPLSKVRTLLSYRKRPDQDCGEVNMLLDEHIRQVESRIGALLELVHHLVELREACSGARPAQSCGILQGLSDCVCDTRGTTAHPSD are 0.4361 ± 0.0031, 1.44 ± 0.053 and 4.041 ± 0.031.
In the same order, the values of MNIQIGELAKRTACPVVTIRFYEQEGLLPPPGRSRGNFRLYGEEHVERLQFIRHCRSLDMPLSDVRTLLSYRKRPDQDCGEVNMLLDEHIRQVESRIGALLELKHHLVELRRACSGARPAQSCGILQGLSDCVCDTRGTTAHPSD are 0.0658 ± 0.00078, 0.107 ± 0.0088 and 1.53 ± 0.029.

The record behind these values is the supplement of paper PMC12783771.
